Data set [1] concerns the molecule itself. The data set is described as follows: AUC; sedimentation velocity and sedimentation equilibrium fitted together to a global discrete species model (SEDPHAT); PBS pH 7.3 with 50 mM DHPC (micelles), 20°C.
Data set [2] deals with the molecule itself. Put plainly: AUC; sedimentation velocity and sedimentation equilibrium fitted together to a global discrete species model (SEDPHAT); PBS pH 7.3 with 5 mM DHPC (submicellar), 20°C.
Data set [3] concerns the molecule itself. The data set is described as follows: AUC; sedimentation velocity (42,000 rpm, 0.5 mg/ml) and sedimentation equilibrium (10,000, 15,000, 20,000 rpm, 18 h each) fitted together to a global discrete species model (SEDPHAT); PBS pH 7.3, 20°C, no DHPC.

Numbering of substitutions follows the chain as printed. Where “and” joins values, the source holds several entries; their conditions need not be identical. Equal entries are not always repeated.

B1: apoE3-(72-166) (domain or fragment, human, UniProt P02649 90-184, looked up)
chain: KAYKSELEEQLTPVAEETRARLSKELQAAQARLGADMEDVCGRLVQYRGEVQAMLGQSTEELRVRLASHLRKLRKRLLRDADDLQKRLAVYQAGA
notes: 12 kDa; numbers count on: the mature protein of 299 amino acids; source: E. coli, purified
One may read the stoichiometry N as a count of units in the complex or per binding partner. Consider B1, for which the “stoichiometry N” value in data set [1] came to 2; in data set [2], 4; in data set [3], 6.

B2: apoE4-(72-166) (domain or fragment, human, UniProt P02649 90-184, looked up)
chain: B1 chain with C41R
notes: as for B1
Take B2: the “stoichiometry N” value was 2 in data set [1] and 4 in data set [3].

B3: apoE2-(72-166) (domain or fragment, human, UniProt P02649 90-184, looked up)
chain: B1 chain with R87C
notes: 12 kDa; numbers count on: the mature protein of 299 amino acids; cDNA amplified with the printed primers and ligated NdeI-XhoI into pET-29a(+); source: E. coli, purified
Regarding B3, the “stoichiometry N” value is 4 in data set [1]; 2 and 6 in data set [3].
